Results published in PMC3903622, “Kinetics of Phosphomevalonate Kinase from Saccharomyces cerevisiae” (PLoS ONE, 2014).

Columns and labels:
purified protein [1] = substrate: C[C@@](O)(CCOP(=O)(O)O)CC(=O)O; assay: purified protein; assay type: biochemical, Saccharomyces cerevisiae; details: co-substrate ATP (0.1–8.0 mM range), 10 mM MgCl2, 100 mM KCl, 200 mM Tris pH 7.2, 30°C
purified protein [2] = substrate: Nc1ncnc2c1ncn2[C@@H]1O[C@H](COP(=O)(O)OP(=O)(O)OP(=O)(O)O)[C@@H](O)[C@H]1O; assay: purified protein; assay type: biochemical, Saccharomyces cerevisiae; details: co-substrate mevalonate-5-phosphate (0.2–10.0 mM range), 10 mM MgCl2, 100 mM KCl, 200 mM Tris pH 7.2, 30°C

B1: phosphomevalonate kinase (PMK) from S. cerevisiae; PMK-His (Saccharomyces cerevisiae S288C) (protein)
chain: MSELRAFSAPGKALLAGGYLVLDTKYEAFVVGLSARMHAVAHPYGSLQGSDKFEVRVKSKQFKDGEWLYHISPKSGFIPVSIGGSKNPFIEKVIANVFSYFKPNMDDYCNRNLFVIDIFSDDAYHSQEDSVTEHRGNRRLSFHSHRIEEVPKTGLGSSAGLVTVLTTALASFFVSDLENNVDKYREVIHNLAQVAHCQAQGKIGSGFDVAAAAYGSIRYRRFPPALISNLPDIGSATYGSKLAHLVDEEDWNITIKSNHLPSGLTLWMGDIKNGSETVKLVQKVKNWYDSHMPESLKIYTELDHANSRFMDGLSKLDRLHETHDDYSDQIFESLERNDCTCQKYPEITEVRDAVATIRRSFRKITKESGADIEPPVQTSLLDDCQTLKGVLTCLIPGAGGYDAIAVITKQDVDLRAQTANDKRFSKVQWLDVTQADWGVRKEKDPETYLDK
notes: E. coli codon-optimized gene in pET-52b+, C-terminal 6xHis tag (removal not mentioned), expressed in E. coli BL21(DE3), Ni-NTA purified
Purified protein [1]
  Km: 885 µM
Purified protein [2]
  Km: 98.3 µM
